Measurements as given in paper PMC8239413.

Molecular target: truncated RBD variant RBD-215 (amino acids R319-L533), plant-produced (SARS-CoV-2) (UniProt P0DTC2)
Assay: SEC; IMAC-purified RBD-215 (Supplementary Figure 4)

## truncated RBD variant RBD-215 (amino acids R319-L533), plant-produced (from UniProt P0DTC2 319-533) (domain or fragment)
  percent dimers: 10%
